Data on one substance can be found in publication PMC5964024.

One assay deals with R5gp120-Hi (human) (UniProt P51681). Briefly: flow cytometry on cells. A general note: A flow cytometer gives signals particle by particle.
Assay [1] addresses myc-tagged human CCR5 (wildtype) (human) (UniProt P51681). Briefly: flow cytometry on cells.

As usually defined, the Kd is the equilibrium constant for the complex coming apart. High values mean lower affinity, low ones higher affinity. With “BaL gp120-CD4-FLAG (from UniProt P01730 26-209) (ligand)”, the Kd in the assay with R5gp120-Hi (human) stood at 0.012 µM; in assay [1] it was 0.032 µM.
